Assay results as given in patent US20120270914A1 (Stanford University, published 2012).

Biological target: NFL-c-Myc (firefly, UniProt P08659 1-398 = luciferase, phosphorylated in the cells at S62 and T58 (c-Myc numbering))
Assay: cell-based or functional assay

NFL-c-Myc, sequence (P08659 other isoform, or with tags, fused parts or gaps limits assumed): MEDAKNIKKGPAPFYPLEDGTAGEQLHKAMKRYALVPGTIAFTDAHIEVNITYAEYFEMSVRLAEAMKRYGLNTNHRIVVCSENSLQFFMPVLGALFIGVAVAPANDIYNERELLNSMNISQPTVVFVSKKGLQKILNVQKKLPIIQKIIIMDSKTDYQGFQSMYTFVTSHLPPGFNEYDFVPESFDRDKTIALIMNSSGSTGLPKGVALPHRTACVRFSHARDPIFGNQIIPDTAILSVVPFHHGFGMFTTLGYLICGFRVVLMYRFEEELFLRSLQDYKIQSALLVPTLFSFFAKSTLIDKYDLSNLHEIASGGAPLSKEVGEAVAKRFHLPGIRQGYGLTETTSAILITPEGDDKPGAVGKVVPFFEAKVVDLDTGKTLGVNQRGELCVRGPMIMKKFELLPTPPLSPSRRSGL

Row | complemented FL activity (BLI, SKBR3 cells), compared with the pairing of GSK Full-CFL and NFL-SH2-SH2 [fold] | complemented FL activity of SKBR3 xenografts in nude mice, normalized to hRL activity, compared with pcDNA3.1(+) vector [fold] | Binder
1 | > 10 |  | GSK Full-CFL (other, not shown: large carriers) MSGRPRTTSFAESCKPVQQPSAFGSMKVSRDKDGSKVTTVVATPGQGPDRPQEVSYTDTKVIGNGSFGVVYQAKLCDSGELVAIKKVLQDKRFKNRELQIMRKLDHCNIVRLRYFFYSSGEKKDEVYLNLVLDYVPETVYRVARHYSRAKQTLPVIYVKLYMYQLFRSLAYIHSFGICHRDIKPQNLLLDPDTAVLKLCDFGSAKQLVRGEPNVSYICSRYYRAPELIFGATDYTSSIDVWSAGCVLAELLLGQPIFPGDSGVDQLVEIIKVLGTPTREQIREMNPNYTEFKFPQIKAHPWTKDSSGTGHFTSGVRVFRPRTPPEAIALCSRLLEYTPTARLTPLEACAHSFFDELRDPNVKLPNGRDTPALFNFTTQELSSNPPLATILIPPHARIQAAASTPTNATAASDANTGDRGQTNNAASASASNST
2 |  | 10.6 | GSK 35-433-CFL (other, not shown: large carriers) SKVTTVVATPGQGPDRPQEVSYTDTKVIGNGSFGVVYQAKLCDSGELVAIKKVLQDKRFKNRELQIMRKLDHCNIVRLRYFFYSSGEKKDEVYLNLVLDYVPETVYRVARHYSRAKQTLPVIYVKLYMYQLFRSLAYIHSFGICHRDIKPQNLLLDPDTAVLKLCDFGSAKQLVRGEPNVSYICSRYYRAPELIFGATDYTSSIDVWSAGCVLAELLLGQPIFPGDSGVDQLVEIIKVLGTPTREQIREMNPNYTEFKFPQIKAHPWTKDSSGTGHFTSGVRVFRPRTPPEAIALCSRLLEYTPTARLTPLEACAHSFFDELRDPNVKLPNGRDTPALFNFTTQELSSNPPLATILIPPHARIQAAASTPTNATAASDANTGDRGQTNNAASASASNST
